Molecular target: Notch receptor expressed on rat esophageal epithelial cells (rat)
Assay: cell-based or functional assay

Notch/CSL signaling (luciferase/Renilla intensity), immobilized Jagged-1/Fc against Fc control: 10 fold | increase in luciferase activity as compared to Fc control plates, 10 nM Jagged-1/Fc precoat, 24 hours: 4 to 10 fold
Substance: Recombinant Rat Jagged-1/Fc chimera (Fc fusion)

Reference: US20060177479A1
